In the supplement of paper PMC12042874:
± gives the uncertainty stated by the source.

Assay: amyloid nucleation score (Sup35N fusion, yeast selection) (log enrichment); library NNK3; higher = more nucleation; inactive = no reads after selection
How it was run: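 The nucleation score, computed with DiMSum, is the log enrichment of output over input reads, centred on the mode score of non-aggregating sequences. Sequences with under 100 input reads were dropped. Reads were generated by Illumina sequencing of plasmid inserts from psi-negative yeast with Sup35N fused to peptides of 20 random codons, induced with 100 μM copper sulfate for 24 hours and grown 7 days at 30°C on medium lacking adenine and uracil.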

Amyloid nucleation score, 0.904 ± 0.16:
MLSLSLYKLFLRWKRTSSHD

Amyloid nucleation score, -0.474 ± 0.57:
LVLMVSQGSYFTTI

Amyloid nucleation score, 0.006 ± 0.3:
MPNLAFSG

Amyloid nucleation score, 1.21 ± 0.08:
MRNMCVLAIILILCFGTRFK

Amyloid nucleation score, 1.88 ± 0.07:
LYIIFHNKYFLVEMGNYNCC

Amyloid nucleation score, -0.323 ± 1.4:
MHAMCQLWCSS

Amyloid nucleation score, 1.31 ± 0.13:
LSVELCTCGVRPQATYYPQG

Amyloid nucleation score, -0.594 ± 2.4:
LVFASSVSSSDLTLCVGSCM

Amyloid nucleation score, 0.661 ± 0.23:
MMNVMFD

Amyloid nucleation score, 2.69 ± 0.055:
MNFGYNNSFAIYSVFYSYRC

Amyloid nucleation score, 0.245 ± 0.37:
LVVLFGPNFLIPVGLRIAVN

Amyloid nucleation score, 2.06 ± 0.065:
LVFVCARQSTIEVRGKQSRM

Amyloid nucleation score, 0.868 ± 0.12:
LYKSNPLFPCQFCLISGKFC

Amyloid nucleation score, 0.013 ± 0.59:
MPCVMILYVIYSIY

Amyloid nucleation score, -0.73 ± 0.9:
LSSYTVSFPKRMHRSEYFGY

Amyloid nucleation score, 2.77 ± 0.068:
LVTSTSMG

Amyloid nucleation score, 1.28 ± 0.096:
LSVGVSRCLNPLLTIGSGRE

Amyloid nucleation score, 2.17 ± 0.089:
MIWFVLL

Amyloid nucleation score, -0.43 ± 0.7:
LWIWR

Amyloid nucleation score, 2.33 ± 0.085:
MFNFEFLC

Amyloid nucleation score, 1.11 ± 0.14:
LYMKSTKLVLTKRDISTFRC

Amyloid nucleation score, 1.64 ± 0.067:
MNWYRIFVVNFSCKRLYSVK

Amyloid nucleation score, 1.92 ± 0.087:
LTVLDQSCSIYYCTSLHKS

Amyloid nucleation score, 0.902 ± 0.21:
LTTQSGLMAGRKKFWDAELG

Amyloid nucleation score, -0.294 ± 0.93:
MCRVV

Amyloid nucleation score, 1.86 ± 0.059:
LVEHVEVCVIYCSCDCFSSV

Amyloid nucleation score, -0.727 ± 1:
LWPRRADVKQASRQPDYQCV

Amyloid nucleation score, 2.49 ± 0.051:
LYFSFIFNLSIQGDAEFVSN

Amyloid nucleation score, 1.53 ± 0.1:
MLFVEFSMGSHCRET

Amyloid nucleation score, 0.141 ± 0.42:
MIDIKCNERAFSEYRFWCRW

Amyloid nucleation score, 1.29 ± 0.1:
LVSHLIGFSCRFNPRSERFC

Amyloid nucleation score, 2 ± 0.058:
MNVFWCACYRCSDRVSMKVW

Amyloid nucleation score, -0.244 ± 1.5:
MLAHGFCQVSEWSRALFLRV

Amyloid nucleation score, -0.169 ± 0.63:
LTTPVTR

Amyloid nucleation score, -0.56 ± 1.7:
MDRYFQYPMQDMAQGTVRRD

Amyloid nucleation score, inactive:
LSMHVVFVYIGFPHMDFDGS, LSMSAVL, LSMVRLNFTRIC, LSNHCARVF, LSSFNDDMNGVTFYPSISLD, LSSLVSFVITQLRLLMKTER, LSSTV, LSTFMWNQAVWTPRIFWRCA, LSVLFCLDGK, LSYSRTGASC, LTFTAVNWAVPVGRGT, LTKYRGPQDVRNAFSCSNIM, LTMSRMMYLDKMLYFLYVQW, LTRFQ, LTRLLGDLIPPVNMGARECD, LTVNDDFRYKAFWVCRSMFV, LTVRKSY, LVDLLHTMYSCYLGYKSFRG, LVEMNFLAVINRFICSSSLP, LVFPVKKSLVCEGV, LVGSSSFTAWPTIVSNI, LVGVSRRSREGDSTLSPSLG, LVGYRAQLHGVNYSMFVGIS, LVKLKL, LVLGWWAIFGVDYGHSSYLL, LVLMCIIARIAVVYKR, LVMLMYVVPGFVGGDFTGDF, LVNDKMLCNYHAMMRLFFFM, LVQSTRGSRSNTWACNERFV, LVTSNNMSAGRYNMCLRVLS, LVVDYLEFCTFLVDVENIWT, LVVGVFKGSRSYVFK, LVVIG, LVWSSRPTSW, LVYREGYIWVMFLIYSFWTV, LWKVRCSSGHGEIYAYCDMA, LWLFSGCFGYYVILATLYFL, LYAINLWLAVFYRLQQFMDV, LYDSIVHESKRLLATDRIRF, LYFCKNKYTCWSACVNSGFN, LYFMCTNRQVL, LYFNWWTRGTAMLYGI, LYGAWSNIPLYMFSFHFMYR, LYGDL, LYITMRNVF, LYLGTSYHRNC, LYMYYWLSYVV, LYNFRECTQTSFISFVCQLV, LYRAIHHNKFLESACLRYAL, LYRVVYFDALKNCGYVVSFW, LYSCRFMNLKTYLVL, LYSGFI, LYSVLGVVSTDSRRDAEWCQ, LYVTRVSVSVVTYRFTCKRV, MAEPTL, MAHDEYWTGCVTGYKELEVM, MAVSRK, MCKMLFSFLCLHKYCWVNVL, MCLSMVKISKNKLSFTGFLI, MCPHKGIRSISLMIG, MDAYRNHFMFTIIKFYSCES, MDPESVWED, MELYPLLVGNFSIQKKVECN, METCPLCIICLYGKWIRFSR, MEVFFTSTFIGEFNRVCDTY, MFDIVNKTSELL, MFECNWAIFRREFLRLVCTV, MFEIIGHRRMLFIFYNMCYR, MFLCYNVLVVTESLGLAHLD, MFVVMWVDYLAEHMFYGRWW, MFWCDNSGIMGADKGVALSW, MGEPGVDAFNRLTPKWCLIP, MGNAEEIAIHDSSAWVVVAR, MGQFVRYLMADSCL, MHAVDNNLRVNIIMSVLLYK, MHLLLQRIWVLQAK, MHYMRFLWSGLLWASVETFV, MICRSSGFLYGCSWFGILYL, MIKMAIRNLGYCSDYRTLCR, MILYPSYLPYLRMVDTTY, MISICCGIPCLFIFWFRASA, MIVVHEFLKGYVFSYRLYNL, MIWAEQGFFVRWWDLFA, MIWWYGVRSMIIDTGWYMHC, MKFPEFQASCL, MKSKKPNSLDENYGSMRHF, MKSQVHNIKWLPTCS, MKVWFSLPRILGGVKGTANK, MKWNPLDQTKL, MKYAFRFCRPSVRWVYDPRL, MLCAPVANLYCKHPWDS, MLEGQSSCRVITDLARL, MLEYRVTARDGVLWEMGFGY, MLFANRHNLESGWSL, MLHLYQIIMRPYTLSGWWYY, MLLDTLCNHLRVYKYVRGDG, MLSGWFGLMIGCTAVVWSDS, MLSMTRCAHIDGGDWFKMAV, MLVAGPLGQE, MLVASGDTAENYSTSVYCV, MLWLNNGGLYWIALIFEMSS, MMLGVLYATLWPLLKLDCGE, MMTTGLLGVLTSCNSMT, MNCWYFLLGACWITIKHLFY, MNFGFWGTVHWSHASNHVGS, MNLDNFLFKVCLGSCF, MNNCLSVDKCFHFMLGFSP, MNRNVTSRVRTPPVCVRVRF, MPEKERAKSSPYLSEPRPHD, MPEVCDLMDHIICVCYGYID, MPPRVRYR, MQLSCRLGSLCSQQSNLARS, MQSNCTVMTNPNDKRMAAWW, MQYDASP, MRKLDPFNSKP, MRNVVSSISRCFDMKAVQQR, MRWCNQDQL, MSCYVV, MSEVPGMNDTWRVCIMDQGK, MSGLLCAEIWSRCPASFIGD, MSIMVASRLALARNVPLQKV

Amyloid nucleation score, 1.42 ± 0.11:
MFFELSLIISCFTEV

Amyloid nucleation score, 1.15 ± 0.15:
LSSIAFCFN

Amyloid nucleation score, 1.43 ± 0.14:
MQLIIIWATRK

Amyloid nucleation score, 1.12 ± 0.12:
MCSPYFMSTSNTIFQSTRYG
